Reference: a protein production outcome set (Wang et al. 2014)

Assay: label from the status in PepcDB records

Sequence | protein production
SFRVVLDPGHGGIDGGARGVTGILEKDVTLAFARALRDELQKGSHTIVALTRDSDIFLRLSERVKKAQEFDADLFISIHADTIDVHSLRGATVYTISDEASDAIAKSLAESENKVDLLDGLPKEESLELTDILLDLTRRETHAFSINFANNVVSNLSKSHINLINNPHRYADFQVLKAPDVPSVLIEIGYLSNKEDEKLLNNPQWRKQMAASIAYSIRQFAEYRQKIMQPL | not failed
KEALEALVPVTIEVEVPFDLHRYVIGQKGSGIRKMMDEFEVNIHVPAPELQSDIIAITGLAANLDRAKAGLLERVKELQAEQEDRALRSFK | not failed
MVLEIGLPPLHVGFIMAYSLLAASLSIFLGLALAEFDVVAHAVLAGYYAGLFFPMSVYTNFFTAAASGAPRPAKEYLPLLLAFILAAVAPLHGSTSTLATLFLLSQAFLLYYMALQAGRFRRDALARFSALAPPISGTGASLILLSSSQLGFLDALMSLTLAFSTPVPLLMAPMAIGASIYGLGPARGKEAIIRLSPALTAIPASILSVLTLSINPYLLPLSLYLVVMRPWRIVSELISVRRPKPPQLYLLSVHAATLAAIVSSLILASNSNIVEAGHAIMIGVIAPHALLHSIVRGGEIPFTRRPRSWTPIPPLLLAASTPLRFASKEASLALALLALSIHVASILDPHPRNIIPRAFRVEGGKQQSATTGG | failed
MLSKVIAQANIDHAEKWFERADKIVIVTHVSPDGDAIGSSLGLWHFLESQEKTVNVIVPNAFPDFLRWMPGAKDIIRYDKYTEFANKLLNEADVICCLDFNALSRIDAMADAVAQSPARKMMIDHHLNPEAFCRIIISHPEISSTSELVFRLICRLGYFEDITKEGAECIYTGMMTDTGGFTYNSNDREIYFIISELLSKGIDKDEIYRKVYNTYSEGRLRLMGYVLYDKMQVFPQFNSALVWLTKEEQSKFQYVKGDTEGFVNIPLSIKNIIFSVFLREDTEKNMIKVSLRSVGAFPCNKVAAEFFNGGGHLNASGGEFYGTMDEAIDLFKQALVKYEELLLAKK | failed
MGRPRYLAYTRQIAMKSWRKAVVGTQATVGDAIAAIESGSIQIALVLDDQNRLLGVVTDGDVRRGLLRGIPLTGLATDIMNRVPVSAPATLSRDDRLHLMRQKSIKQLPLVDEGGHLVVVETLDELLEPRHYANPVLIMAGGLGERLGALTRDVPKPMLNVGGRPLLETIVRNVVQQGFRNIYISVNYKAETIKDYFADGAAFGANIQYVHETERLGTAGALGLFPAPPDLPMIVTNGDILTTINYGALLDFHNGTPAEATMAVREHKVHVPYGVVSTSDGFLQAIREKPTESWFVSAGIYVIGSSVFGHVAPGVSIDMPTVLERVIAGKGRVAVYPIREYWLDIGRLEDFEQAHAEFHEVFPLEHHHHHH | not failed
MDRMDKAAKINIINANVRNAQTGDYYYNPYKIVNKTFTDTDGKQVTLKIGITGVLPTQILVWDKANLEGKVTVDDPMEAVKTIVPQMKAAGADFILVAAHSGIGDNEYTKNEENEGYQIAGIEGVDAVATGHSHADFPNGDGTSFYAKYPGVDDVNGLINGKPVVMAGKFGDHLGIMDVKLTYTDGKWKVVNSKAKLEKIDTKSDIADKALIDMAAHDHDGTILTMFVRKLVRPLPQSLAILLKFRTIHLFKS | failed
LRKQVEELFERKYAQAIKAKGPVTIPYPLFQSHVEDLYVEGLPEGIPFRRPSTYGIPRLERILLAKERIRFVIKKHELLNSTREDL | not failed
MSPMAPVARAKRKFILLLIKPSHYDDDGYVLRWWRGIIPSNSLATLYGIAADVAARQVLGADVEFEIEAMDEFNTRIDIPALLDRFARNGNFGLVGLVGVQSNQYPRALDIARPFRASGVPVVMGGFHVSGCLAMLDGKAIGLDDCRDMGVAMFAGEAEGGRFDGVLQDAAAGQLQPVYNFLNDLPGIEGVPAPYLPLATVKRTLGLSTSVDAGRGCPYQCSFCTIINVQGRKSRYRTPDDIEAMVRRNWAQGISKYFITDDNFARNKDWEAILDRLIQIRETEDIPLGFMIQVDTLCHKIPRFIEKAKRAGVTRVFIGLENINPANLLTANKRQNKITEYRAMLLAWKDHGIITLAGYILGFPADTPASIRADIDIIKRELPIDVMEFFCLTPLPGSEDHQTLWRAGVAMDPDLNNYDVEHVCTAHPLMSRPEWEAIYREAWSRYYTPDHIETLLRRAAATGIKISSLVKLLAIFSTAIRVENVHPLQCGLFRQRHPSERRPGLAAPNALLFWPRFALDSVRKTGVILAAFAKVAAIGVRVARDPQRLAYTDQALTPVSDDDADSLDLFTQSASAKQAVAHQKKVFDLTHGTP | failed
MDIKNGLFIIGVIPTILFAVLTFIFWWKIRKLKDLRTLRLGRLSFFALLFLWITINGIIGSGLVLTELHQNVLLLLLIAEAVVMFLIIPMIIGIIVPISIVVLTIKMWRRESKSIGNLLLAIVVLTFLVVDWIHLSMGRLPDSWIWLKILGMVYPILSIYLAWQFGIFFLSSWVYGRRVRKQRANYYVVLGAGLIQGEHVGKLLGNRILAAVKAVRDNETILVFSGGQGPDEKVSEARAMQRYAVEVLGFPIERTMLEDQSRTTYENLFFSSQLIREKFLFFTSDYHVFRAALFAAMLKLEAQGGKGGKTAMYYRVPAFIREFIAVLNYEKKKHMIRVGIIVAIFLSIAIVSQIGYFWNQR | failed
MSTVEKIQTFIILFAVTCGIVLGQFHLIHMYSEQFIVPFLFFMLYGLFLSIPLKEIKNGFRNLKFAGTSLTINFLWTPLLAWGLGALFLSDHPALWVGFIMLMVTPCTDWYLIFTEIAKGNVALSTAILPVNLILQVLLLPIYLFLFAGVMKTVAVSVLVESIVIVIVLPFLLAHATKFIMNKLKKAETLENKLIPFFSSAQIVFLSLAIVAMFASQGKYLLQNMNVVLLLLIPVLLFFIINFVLGQFIGRVMRLSYKDTVSLNLTTLARNSPVALAIAVTAFPNEPLIALALVIGPLIELPVLACVSQVLLLIKKKKQYT | failed
MLTLLPTPIGNLQDITLRSLEVLKVAEIILCEDTRVSKRLLSLLSQKELLPPKEYRYISLHSHNEEATLQNLPPDFFTQEVVYMSDAGMPCISDPGAALVRYAQERGISYTVLPGA | failed
MQMAGFGLIAKLRNKIRVKPNNKIQIGKNTRIRYCDIYVNGNNNQLIIHNGANLKGVSIELNGNNCLLEIGENCVIGENCFLSCRESGTKLVIGKECMFSRNVKLMTSDGHDILRDGKRINPAKSIYIGSHVWLADNVTILKGVDIGSGSIIGINSTVTKSIGQYCIAAGNPARKIKDNISWNTTLSY | failed
MGPIGAEADENQTVEEMKVEQYGPQTTPRGELVPDPEPELIDSTKLIEVQVVLILAYCSIILLGVIGNSLVIHVVIKFKSMRTVTNFFIANLAVADLLVNTLCLPFTLTYTLMGEWKMGPVLCHLVPYAQGLAVQVSTITLTVIALDRHRCIVYHLESKISKRISFLIIGLAWGISALLASPLAIFREYSLIEIIPDFEIVACTEKWPGEEKSIYGTVYSLSSLLILYVLPLGIISFSYTRIWSKLKNHVSPGAANDHYHQRRQKTTKMLVCVVVVFAVSWLPLHAFQLAVDIDSQVLDLKEYKLIFTVFHIIAMCSTFANPLLYGWMNSNYRKAFLSAFRCEQRLDAIHSEVSVTFKAKKNLEVRKNSGPNDSFTEATNV | failed
MATITRTDRLILVPLTVELEDEAHQIYSDSRIWEHRPQARHTNVRVTRDIIKRTNESWGKKDLGPWGVYLRDRPSEFVGVGGVELIDGKVWDLKYRLRPDLWGNGYATEISNAATLATKRIDDSLPLTARVTTNHPASFRILEKLGLTPVWEGRRVGTEDDPNEPDVRIYSDRPLSDEILEMLKQRP | failed
MVKNGRDPPERNFYCTEKEETAPPLMNIFDDFKSQIEREIMTIFLKTAYESLLSIAISTEIIVPEDETRSLEKEVIKLMKLMKLMNLLEPLGNRVSRLMGLVRNAEEHRERIVKRNQESDVREIFKIAASRTKTRFHKALQKESSSSSMKWGFTEAKDEVLSLGIRLTHALIKLTLLRVKKNDREKQLLLRDWIFDESYEKQSALMYLLDYLLYKAEEFAASVVVEESGNDHHRQHILEEDRIGDDILTRISEAIFILQLLAMNLSRNVLTERDLIATNDQLLRCVRDVKFVESTIVVLMKGRSLKLKHKGKQSLLMKERTETIFWAKVNAELNKCWGESFWKYVEAARHLEAVVSSQQIVYTLCKLFVFGFES | failed
MEYLGPVLWSPAGKPPTWWDSLPTDRPIVYATLGTSGGRNLLQLVLNALAELPVTVIAATAGRSDLKTVPANAFVADYLPGEAAAARSAVVVCNGGSLTTQQALVAGVPVIGVAGNLDQHLNMEAVERAGAGVLLRTERLKSQRVAGAVMQVISRSEYRQAAARLADAFGRLEHHHHHH | failed
PRPAVSVAPTTEAESFVQDRIEEDGLHVVHFWAPWCANSRNELDNGWAGLVADNPDVTFTFVTVWNDDESGAAMLNDYNLPDRVVEVTQPDLGPSDTEANRRYSFLGLPVTWIPSTWIFHSNGELAFAMNYGEMEMQTVQRLLDATSADW | failed
DRTTYYSILGLTSNATSSEVHKSYLKLARLLHPDKTKSDKSEELFKAVVHAHSILTDEDQKLRYDRDLKIKGLHTYQPKK | failed
MLCCPDPRRRGQHNNRRRNAMPKLHESRIHDLRPTQLTVGMIEVQAKKTHLAAMAPADQQAFMQAHPIPAVLGPGGQLYITDHHHLGRAALDAGVITGYFMVEADLSQHSLDDFWKAMDQNLWVHPLDEHGVRHYYASIPKHLEKLVDDPYRSLAGYVRDAGGYDKTPTAFAEFVWADFFRRSIPIEDLLADFQAAVHAALPLAKSKFAKALPGYNGKLEHHHHHH | failed
VTPQGLRIVLQDDYKQHMFSRGGAELTPFFEDLLLALAPLFEQVTNPLIISGHTDAIPFKKRFGRQSNWALSASRADVARKTLVEGGMPDDRVMQVTGMSDRALLNPDEPDSSENRRIELFILTTP | failed
LTSSNALRGDAHSRLAAHRGLLERTSRTTRVAGILRDAIIDGTFRPGARLSEPDICAALDVSRNTVREAFQILIEDRLVAHELNRGVFVRVPTAEDITELYICRRVVECAGVNGFDPATGDLSRVAEALDLADERYAVEDWTGVGTADIHFHSALASLNNSNRIDELMRSVWNEARLVFHVMDDAHRFHGPYLTRNHEIYDALAAGNTEAAGQLLKTYLEDAEAQILGAYRPVSG | not failed
SLANIREIAKRAGISIATVSRHLNNTGYVSEDAREKIQKVVDELNYTPNALARAMFTKNSKTIGLMVPNISNPFFNQMASVIEEYAKNKGYTLFLCNTDDDKEKEKTYLEVLQSHRVAGIIASRSQCEDEYANIDIPVVAFENHILDNIITISSDNYNGGRMAFDHLYEKGCRKILHIKGPEVFEATELRYKGFLDGARAKDLEIDFIEFQHDFQVKMLEEDINSMKDIVNYDGIFVFNDIAAATVMRALKKRGVSIPQEVQIIGFDNSFIGELLYPSLTTINQPIEALAYTIIELLIKIINGEGVLIEDYIMEVKLIERETTISLKDEG | not failed
MNSIWKQYIDILQGVVKPALGCTEPICAAYAASVATQMLGSKPETIDVFVSDNLYKNSMGVFVPRTGRVGLAIAAATGAIGGNPDAGLEVLAKITEEEVDEAQKLIDNGCVVVQRETTDEFIYCRVIAKNAVHNAEVTISGGHTLIIEKRLDDNVIFTLDSSLPKTSTASICDGVDITISSIYDFATQAEFDDIKFILEAKELNIALAQEGLNNPYGLEVGRTYQKNIEKGLLAKSLDSDILIYTSAASDARMGGATLPAMSNYGSGNQGIAATIPVVKMADFFNADDEKLARAFIMSHLGAIYIKSHYPPLSAFCGNAVTSAAASMAMVYLAGGTFEQSCSAIQNTISDTSGMICDGAKSTCAMKVGSSAQSAMKSALLALNDHCVTKQGVIADDVEKTIKNIGRMITTGMPNIDHEIIEIMAS | failed
MTNVGRPIETHAITVGQGSDARSIAALVRAPAQDERPTCIWLGGYRSDMTGTKALEMDDLAASLGVGAIRFDYSGHGASGGAFRDGTISRWLEEALAVLDHFKPEKAILVGSSMGGWIALRLIQELKARHDNPTQVSGMVLIAPAPDFTSDLIEPLLGDRERAELAENGYFEEVSEYSPEPNIFTRALMEDGRANRVMAGMIDTGCPVHILQGMADPDVPYQHALKLVEHLPADDVVLTLVRDGDHRLSRPQDIDRMRNAIRAMIEPRP | not failed
